Columns and labels:
Format in all cases: cell-based
[1] = test system: Gal4/Myc; test: Gal4-TK-luciferase transactivation analysis, Gal4/Myc; settings: IPTG-induced stable expression in Swiss 3T3 cells
Source text: (§1) Swiss 3T3 cells were transfected using calcium phosphate or lipofectamine with the reporter plasmid Gal4-TK-luciferase, which contains four Gal4 binding sites (Sadowski, I., et al. (1988). Nature 335, 563-564). adjacent to a minimal thymidine kinase (TK) promoter that controls expression of luciferase, in the presence or absence of activator plasmids encoding Gal4(1-147)/Myc(7-101) (Gupta et al. (1993) Proc. Natl. Acad. Sci. USA 90:3216-3220), Gal4(1-47)/Elk-1(83-428) (Marais, et al. (1993) Cell 73:381-393) or Gal4(1-147)/c-Jun(1-233) Hibi et al. (1993) Genes & Development 7:2135-2148). Transfections included pCMV5 without a cDNA insert (basal control), pCMV5MEKKCOOH and in some experiments pCMV5BxBRaf. Cells were incubated for 24-48 hr after transfection, lysed and assayed for luciferase activity. Values were normalized to equivalent μg protein for all experiments.

[2] = test system: ERK; test: ERK activity in Swiss 3T3 clones with inducible MEKKCOOH; settings: 17 hours IPTG induction
[3] = test system: Gal4/Jun; test: Gal4-TK-luciferase transactivation analysis, Gal4/Jun; settings: IPTG-induced stable expression in Swiss 3T3 cells
Source text: as §1

[4] = test system: REF52 cells; test: Cell morphology after microinjection of expression plasmids; settings: microinjected REF52 cells
Method: (§2) Swiss 3T3 and REF52 cells were plated on acid-washed glass cover slips in Dulbecco's Modified Eagle's Medium (DMEM) and 10% bovine calf serum (BCS) or newborn calf serum (NCS). Cells were placed in DMEM/0.1% calf serum for overnight incubation prior to microinjection and used for injection at 50-70% confluence. Injections were performed with an Eppendorf automated microinjection system with needles pulled from glass capillaries on a vertical pipette puller (Kopf, Tujunga, Calif.). Cells were injected with pCMVβ-gal in the presence or absence of pCMV5MEKKCOOH or pCMV5BxBRaf at 20-100 ng/μl for each expression plasmid in 100 mM KC1, 5 mM NaPO4, pH 7.3. Following injection cells were placed in 1% NCS for 12-18 hr (Swiss 3T3) or 42 hr (REF52) prior to fixation with paraformaldehyde and staining. Similar results were obtained when cells were placed in 10% NCS after microinjection. Propidium iodide ([…]) was used to stain DNA. X-Gal reactions were performed for six hr.

[5] = test system: Gal4/Elk-1; test: Gal4-TK-luciferase transactivation analysis, Gal4/Elk-1; settings: expression in Swiss 3T3 cells
Source text: as §1

[6] = test system: Swiss 3T3 cells; test: MEKKCOOH-induced cell death after nuclear microinjection of expression plasmids
Method: as §2
Swiss 3T3 cells were microinjected with 100 ng/μl pCMVβ-gal and 20 ng/μl pCMV5MEKKCOOH. To label free DNA ends fixed and rehydrated cells were incubated with terminal deoxytransferase (TDT) and 10 nM biotin-dUTP following the manufacturer's instructions (Boehringer-Mannheim). Cells were stained with FITC-streptavidin to label DNA fragments. β-gal was detected using rabbit anti-p-gal antibody (Cappel Labs) and a rhodamine-labeled goat anti-rabbit antibody (Cappel Labs).
Seventeen hours after injection cells were fixed and stained for, β-galactosidase activity with X-Gal. Injected cells attached to the coverslip were scored as positive for cell death when they were highly condensed, small round cells.

transactivation function of c-Myc [1]: markedly activated | Gal4/Jun activity [3]: little effect on Gal4/Jun activity | transactivation function of Elk-1 [5]: markedly activated
B1: MEKKCOOH: a truncated activated form of MEKK1 including the entire kinase domain (protein)
chain: MAMSASQDALPIVPQLQVENGEDIIIIQQDTPETLPGHTKAKQPYREDAEWLKGQQIGLGAFSSCYQAQDVGTGTLMAVKQVTYVRNTSSEQEEVVEALREEIRMMGHLNHPNIIRMLGATCEKSNYNLFIEWMAGGSVAHLLSKYGAFKESVVINYTEQLLRGLSYLHENQIIHRDVKGANLLIDSTGQRLRIADFGAAARLASKGTGAGEFQGQLLGTIAFMAPEVLRGQQYGRSCDVWSVGCAIIEMACAKPPWNAEKHSNHLALIFKIASATTAPSIPSHLSPGLRDVAVRCLELQPQDRPPSRELLKHPVFRTTW
ERK activity [2]: did not activate either ERK or p38/Hog1 activity | cytoplasmic and nuclear morphology [4]: dramatic cytoplasmic shrinkage and nuclear condensation | Condensed Cells (percent of cells injected) ([6]; 100 ng/μl plasmids, seventeen hours after injection, X-Gal): Approximately 84% | cells with cytoplasmic and nuclear morphology characteristic of apoptosis ([6]; 18 hrs postinjection): Greater than 80% | DNA fragmentation (TDT, biotin-dUTP, streptavidin-FITC) ([6]; microinjected Swiss 3T3 cells): significant DNA fragmentation | induction of cell death on expression (in words) ([6]; microinjected Swiss 3T3 cells): resulted in significant cell death
